The test system of one experiment is GRP78/BiP. The experiment in a line: In vivo luciferase refolding assay in HEK-293 cells. The class given is cell-based. The note with it: heat shock 45°C 30 min, relative to non-heat-shocked cells, mean of three independent experiments ± SEM. On the procedure: In vivo refolding assay was performed essentially according to the method described by. HEK-293 in a 70%-confluent 10 cm dish were transfected with β-actin-fire fly luciferase construct (2 µg), pcMV6-GRP78 (3 µg), Bag-1 or Bag-1 peptides in pcDNA3.1-HA (6 µg) and Renilla luciferase construct (0.5 µg) for equal transfection control. Two days after transfection the cells were divided into two and incubated in heat shock buffer (MOPS 20 mM and cycloheximide 20 µg/ml) for 30 min at 37°C. One half of the transfected cells was heat shocked for 30 min at 45°C and allowed to recover at 37°C for 30 min. The other half was left untreated and used as control. At the end of the experiments, the cells were harvested, lysed and luciferase activity was measured. The activity measured for the non-heat shocked cells was set as 100% of refolded luciferase and the activity measurements of the heat shocked cells were expressed relative this value.
Figure 2 Identification of Bag-1 peptide interfering with the action of GRP78/BiP. […] Depicted in blue and red are the ubiquitin-like domain and the BAG domain respectively. B. Identification of the Bag-1 peptide binding to GRP78/BiP. […] Western blot analysis with an HA antibody to detected the Bag-1 mutants is shown. […] Thereafter luciferase activity was measured. Results are expressed as percentage of refolding activity relative to non-heat-shocked cells and presented as bar charts of the average of three independent experiments ± SEM. *p<0.05.
Figure 6 Selectivity of action of the Bag-1 peptide. […] Fluorescence polarization (FP) assays with a 10 nM FITC-labeled 7-mer Bag-1 peptide and dilutions of the GST-fused substrate binding domain of GRP78 in 60 µl of Tris-GSH buffer (50 mM Tris, 10 mM reduced glutathione and 0.1% BSA, pH 8.0). Triplicate samples were measured after 5 h of incubation at room temperature with an Infinite F-200 reader (Tecan) with excitation at 490 nm and emission at 535 nm. Binding constants were determined from three independent experiments using non-linear regression in Sigma Plot 10.0. […]

The next experiment has as its system SBD of GRP78/BiP. The experiment in a line: GST pull-down with substrate binding domain (SBD) of GRP78/BiP. The note with it: 10 µg GST-GRP78(SBD), 500 µg (N-terminal peptide: 100 µg) lysate of HEK-293 cells expressing HA-tagged construct. On the procedure:
Expression of GST fusion proteins for GST-pull-down experiments were performed essentially as described previously.
Figure 1 Bag-1 proteins interact with the molecular chaperone GRP78/BiP. A. The Bag-1 family of proteins binds GRP78/BiP. GST pull-down assay was performed incubating 5 µg each of GST-fused Bag-1 proteins with 400 µg of 22Rv.1 cell lysate. Western blotting with a specific antibodiy against GRP78/BiP was used to detect the binding and an anti-GST antibody was used to determine the amount of bacterially purified protein employed in the assay. B. Bag-1 and GRP78 interact in vivo. GRP78 was immunoprecipitated with an anti-GRP78/BiP antibody or IgG as control in 22Rv.1 cells. Western blotting with an anti-Bag-1 and anti-GRP78 antibody was performed to determine GRP78-Bag-1 interaction. C. Bag-1 and GRP78/BiP show a perinuclear colocalization. Confocal microscopic analyses were carried out in 22Rv.1 cells that have been paraformaldehyde-fixed and stained with a Bag-1 antibody to detect Bag-1 (green channel) and a GRP78/BiP specific antibody to detect GRP78/BiP (red channel). The orange staining in the merge of the two channels indicates the degree of co-localization of the two proteins. All images (40X) were acquired with a Leica TCS SPE confocal microscope (Leica Microsystems; Scale bars indicate 25 µm). D. Diagrammatic representation of the domains of GRP78. E. Bag-1 binds to multiple sites on GRP78. GST-pull down assay performed incubating 500 µg lysate of HEK-293 cells transfected with an HA-tagged Bag-1 and 10 µg GST-fused GRP78 full length and its ATPase and substrate binding domain (SBD). Western blot analysis was carried out using an HA antibody to detect the Bag-1-tagged protein.
Figure 2 Identification of Bag-1 peptide interfering with the action of GRP78/BiP. […] Depicted in blue and red are the ubiquitin-like domain and the BAG domain respectively. B. Identification of the Bag-1 peptide binding to GRP78/BiP. GST-pull down assay performed incubating 500 µg lysates from HEK-293 cells transfected with the indicated Bag-1 constructs and 10 µg of GST-GRP78(SBD) or GST as control. Western blot analysis with an HA antibody to detected the Bag-1 mutants is shown. […] C. The Bag-1 68 amino acid peptide binds in vivo to GRP78. HEK 293 cells were co-transfected with pcDNA-HA-tagged Bag-1 peptide. […] Thereafter luciferase activity was measured. Results are expressed as percentage of refolding activity relative to non-heat-shocked cells and presented as bar charts of the average of three independent experiments ± SEM. *p<0.05. […]

Where no end group is shown, it is not given here.

With “19-mer: Bag-1L 202–220 (TPLSALGIQDGCRVMLIGK; not fully specified)”, the “GRP78/BiP refolding activity (luciferase)” value (shortened to “GRP78/BiP refolding activity”) in the experiment with GRP78/BiP is listed as “inhibited the ability of GRP78/BiP to refold denatured protein”.

As for “N-terminal peptide: N-terminal 40 residues of the Bag-1 peptide (Bag-1L 202–241) (TPLSALGIQDGCRVMLIGKKNSPQEEVELKKLKHLEKSVE; not fully specified)”, in the experiment on SBD of GRP78/BiP, the “interaction with SBD of GRP78/BiP” value is listed as “interacted preferentially with the SBD”.

B1: Bag-1: cochaperone Bag-1, HA-tagged (pcDNA3.1-HA-Bag-1), or endogenous (protein)
chain: TPLSALGIQDGCRVMLIGKKNSPQEEVELKKLKHLEKSVEKIADQLEELNKELTGIQQGFLPKDLQAE
modifications: left off: HA, end not stated, kept
notes: cochaperone Bag-1, HA-tagged (pcDNA3.1-HA-Bag-1), or endogenous
Consider B1, for which, in the experiment on SBD of GRP78/BiP, the “interaction with SBD of GRP78/BiP” value is “interacted not only with the full length GRP78/BiP but also with its ATPase and SBD”. For the same molecule, in the experiment on GRP78/BiP, the “GRP78/BiP refolding activity” value is given as “reduced to the control level”.

B2: Bag-1 peptide: internal sequence of 68 amino acids of Bag-1 (Bag1-L 202–269), HA-tagged, expressed from pcDNA3 (peptide)
chain: B1 chain
modifications: also: HA tag, end not given here
Take B2: the “interaction with SBD of GRP78/BiP” value was “required for binding the SBD of GRP78/BiP” in the experiment with SBD of GRP78/BiP (listed as 68 amino acid sequence); “interacted with both the SBD and ATPase binding domains of GRP78” in the experiment on SBD of GRP78/BiP (listed as full length 68 amino acid peptide). Besides, the “GRP78/BiP refolding activity” value in the experiment on GRP78/BiP is given as “reduced to the control level”.
